Reference: paper PMC11305080

Assays:
[1] = target: human proprotein convertase subtilisin/kexin type 9 (PCSK9) (human) (UniProt Q8NBP7); assay: BLI
[2] = target: HIT01-K21Q-R218E (cleavage-resistant variant of HIT01) (Pangasianodon hypophthalmus (iridescent shark) scaffold with human PCSK9 stretches); assay: BLI

Substance: Alirocumab
- Kd [1]: 1.71 nM
- Kd [2]: 2.78 nM
